Results on 167 variants are retold here after the Human Domainome abundance scans (Beltran et al. 2025).

The labels stand for the following.
B1: Ras GTPase-activating protein 1, residues 281 to 341; numbered along this chain, P20936 (parent)
chain: RRRVRAILPYTKVPDTDEISFLKGDMFIVHNELEDGWMWVTNLRTDEQGLIVEDLVEEVGR

± gives the uncertainty stated by the source.

In this data set the parent is B1. Nature of the data set: abundance fitness (aPCA) (normalised: wild type 0, dead -1); higher = more abundant; growth selection in yeast, the domain comes from the species named. The following applies: Homo sapiens.
In the case of E18P, the abundance fitness was -1.04 ± 0.12. Under E18C stands -0.341 ± 0.03. With E18G the figure was -0.507 ± 0.031. In the case of E18T, the abundance fitness was -0.222 ± 0.038.

For E18W, the abundance fitness is -1.28 ± 0.29. For E18Q, the abundance fitness was found to be 0.047 ± 0.089. Take I19R: the abundance fitness was -0.833 ± 0.05. With I19D the figure was -0.941 ± 0.063. Under I19M stands -0.316 ± 0.048; under I19Y, -0.86 ± 0.043.

For the variant I19W, the abundance fitness was -1.04 ± 0.12. For the variant I19F, the abundance fitness was -0.943 ± 0.061. Regarding L33Y, the abundance fitness is -0.051 ± 0.027.

Consider L33T, for which the abundance fitness is -0.03 ± 0.03. On to L33F, for which the abundance fitness is -0.042 ± 0.026. For the variant L33E, the abundance fitness was -0.153 ± 0.065. As for L33N, the abundance fitness is -0.158 ± 0.03. Take R1V: the abundance fitness is -0.016 ± 0.038.

In the case of R1D, the abundance fitness stood at 0.122 ± 0.053. On to R1A, for which the abundance fitness was -0.129 ± 0.047. With R1Q the figure was -0.503 ± 0.39; with V52W, -0.047 ± 0.046. As to V52M, the abundance fitness was found to be 0.031 ± 0.072. Take V52N: the abundance fitness came out at 0.015 ± 0.028. As for V52G, the abundance fitness amounted to 0.059 ± 0.024. Take V52I: the abundance fitness turned out to be 0.022 ± 0.027. With V52H the figure was 0.029 ± 0.031.

In the case of V52P, the abundance fitness was 0.04 ± 0.035. Under E58Q stands -0.113 ± 0.069; under E58C, -0.146 ± 0.032. For the variant E58D, the abundance fitness was -0.026 ± 0.037. With R61E, the abundance fitness amounted to 0.234 ± 0.16. For R61T, the abundance fitness was 0.092 ± 0.037. For F27Q, the abundance fitness was -0.815 ± 0.12. As to F27A, the abundance fitness was -0.901 ± 0.06. In the case of F27R, the abundance fitness was -0.905 ± 0.054. Take F27I: the abundance fitness is -0.864 ± 0.044. For F27Y, the abundance fitness is -0.834 ± 0.045.

For V40H, the abundance fitness was -0.858 ± 0.063. Take L55F: the abundance fitness amounted to 0.015 ± 0.03.

Consider L55W, for which the abundance fitness is -0.165 ± 0.041.

As for L55P, the abundance fitness is -0.925 ± 0.086. Under L55G stands -0.348 ± 0.028.

L55H: the abundance fitness was found to be 0.059 ± 0.034. Turning to L55E, the abundance fitness is -0.765 ± 0.12.

Consider L55M, for which the abundance fitness was found to be 0.005 ± 0.057. Take W37L: the abundance fitness is -0.003 ± 0.022. On to W37S, for which the abundance fitness stood at 0.004 ± 0.02. Turning to W37E, the abundance fitness is -0.176 ± 0.036. With W37C the figure was -0.016 ± 0.021. For W37P, the abundance fitness is -0.795 ± 0.037. With L50K the figure was 0.131 ± 0.063. For the variant L50P, the abundance fitness is -0.504 ± 0.057. In the case of L50R, the abundance fitness was 0.142 ± 0.027. As for L50T, the abundance fitness was -0.04 ± 0.032. Under E47N stands -0.428 ± 0.032; under E47S, -0.348 ± 0.026.

V4A: the abundance fitness was -0.462 ± 0.026.

As to V4F, the abundance fitness is -0.082 ± 0.021. With V4Q the figure was -0.848 ± 0.062. With V4I the figure was -0.205 ± 0.023; with V4W, -0.597 ± 0.038. Consider V4P, for which the abundance fitness is -0.903 ± 0.045. Consider V56R, for which the abundance fitness is -0.846 ± 0.048. V56E: the abundance fitness is -1.07 ± 0.15. As for V56A, the abundance fitness was -0.421 ± 0.035.

In the case of V56Y, the abundance fitness was -0.982 ± 0.062. Under V56H stands -0.93 ± 0.069; under V56K, -0.741 ± 0.1; under V56W, -0.844 ± 0.086.

For V56M, the abundance fitness is -0.23 ± 0.056. With V56D the figure was -0.887 ± 0.052. Turning to V56S, the abundance fitness was -0.73 ± 0.036. Consider N42F, for which the abundance fitness is -0.782 ± 0.051. Take N42A: the abundance fitness was -0.436 ± 0.033.

With N42Y, the abundance fitness was -0.969 ± 0.057. N42V: the abundance fitness was -0.963 ± 0.049. Consider N42T, for which the abundance fitness was -0.875 ± 0.064.

For N42S, the abundance fitness was -0.235 ± 0.026. As for N42K, the abundance fitness was -0.61 ± 0.083.

For F21E, the abundance fitness was -0.866 ± 0.063. With F21H the figure was -0.84 ± 0.036; with F21I, -0.568 ± 0.024; with F21Y, -0.091 ± 0.021. As to F21M, the abundance fitness is -0.538 ± 0.039. On to F21C, for which the abundance fitness is -0.101 ± 0.021. As for G60I, the abundance fitness was -0.299 ± 0.11.

In the case of G60Q, the abundance fitness is -0.328 ± 0.18. With G60P the figure was -0.023 ± 0.16; with G60Y, -0.058 ± 0.1; with G60L, -0.227 ± 0.12. In the case of G60S, the abundance fitness is -0.068 ± 0.05. With T11N, the abundance fitness was -0.026 ± 0.029. Under T11D stands 0.016 ± 0.034; under T11E, -0.108 ± 0.089; under T11W, -0.213 ± 0.049. Take T11S: the abundance fitness was -0.05 ± 0.024. With T11P the figure was -0.696 ± 0.051; with D25F, -0.822 ± 0.047; with D25S, -0.874 ± 0.042. Under E34Y stands -0.188 ± 0.034; under E34V, -0.089 ± 0.03. Regarding E34P, the abundance fitness worked out at 0.03 ± 0.048. Under E34Q stands 0.074 ± 0.073; under E34M, -0.159 ± 0.089; under E34W, -0.28 ± 0.066. On to E34T, for which the abundance fitness was -0.106 ± 0.041. On to K23C, for which the abundance fitness is -0.16 ± 0.023. Consider K23A, for which the abundance fitness was -0.038 ± 0.031. In the case of K23M, the abundance fitness was -0.149 ± 0.033. For K23Q, the abundance fitness was -0.061 ± 0.043. As for L22W, the abundance fitness was -0.102 ± 0.058. As for L22F, the abundance fitness is -0.145 ± 0.029. Take L22E: the abundance fitness worked out at 0.006 ± 0.083.

In the case of L22C, the abundance fitness is -0.124 ± 0.031. With L22K the figure was -0.07 ± 0.073; with L22S, -0.108 ± 0.029; with L22T, -0.153 ± 0.039. With W39N the figure was -0.134 ± 0.022; with W39E, 0.003 ± 0.032; with W39I, -0.284 ± 0.021. With W39C, the abundance fitness was -0.187 ± 0.021. Under W39R stands -0.03 ± 0.023. In the case of D54H, the abundance fitness was -0.225 ± 0.037. As for D54T, the abundance fitness was 0.016 ± 0.051. D54R: the abundance fitness was found to be 0.133 ± 0.036.

For D54S, the abundance fitness is 0.058 ± 0.029. As for D54W, the abundance fitness is -0.184 ± 0.059. As for D54I, the abundance fitness was -0.338 ± 0.045. Under D54L stands -0.281 ± 0.041. For the variant D54Q, the abundance fitness was 0 ± 0.075. Under A6L stands -0.896 ± 0.029; under A6N, -0.908 ± 0.032. As for A6Q, the abundance fitness was -0.915 ± 0.061. In the case of A6H, the abundance fitness was -0.925 ± 0.034. In the case of A6T, the abundance fitness is -0.84 ± 0.034. As for Q48Y, the abundance fitness is -0.08 ± 0.027.

As for Q48P, the abundance fitness was -0.503 ± 0.04. Q48H: the abundance fitness was -0.048 ± 0.03. On to Q48M, for which the abundance fitness is -0.107 ± 0.057. With V59R, the abundance fitness is -0.372 ± 0.033. For the variant V59N, the abundance fitness is -0.19 ± 0.033. Take I28Q: the abundance fitness is -0.047 ± 0.042. As for I28P, the abundance fitness is -0.85 ± 0.04.

As to I28C, the abundance fitness is -0.07 ± 0.021.

With I28R, the abundance fitness is -0.206 ± 0.021. Consider I28D, for which the abundance fitness came to 0.029 ± 0.022.

For I28M, the abundance fitness was -0.029 ± 0.031. Under I28A stands -0.068 ± 0.022; under I28G, -0.604 ± 0.022; under T16Q, -1.03 ± 0.21.

Take T16A: the abundance fitness is -0.746 ± 0.053. Turning to T16W, the abundance fitness is -0.688 ± 0.061. T16D: the abundance fitness was -1.01 ± 0.068. Consider T16L, for which the abundance fitness is -0.973 ± 0.056. As for T16F, the abundance fitness is -0.752 ± 0.04.

T16M: the abundance fitness was -0.87 ± 0.12. For the variant Y10Q, the abundance fitness was -0.422 ± 0.089. Y10S: the abundance fitness was -0.623 ± 0.042. With Y10T the figure was -0.999 ± 0.098; with Y10N, -0.35 ± 0.048; with Y10M, -0.577 ± 0.096.

Turning to Y10K, the abundance fitness is -0.485 ± 0.15. Under N31R stands 0.073 ± 0.027. On to N31V, for which the abundance fitness is -0.159 ± 0.028. Regarding N31F, the abundance fitness was -0.17 ± 0.029. Under N31D stands 0.046 ± 0.033.
